# According to the domain aggregation screens of Martell et al. (2025):
# Assay: soluble fraction after stress (log2 fold change); higher = more stays soluble; pooled small domains, quantitative proteomics
# Settings: stress: 50 degC
# In short: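 The measure of aggregation propensity here is the base-two logarithm of the fold change in the soluble amount of each protein after stress. A higher value means more of that protein stays in solution. Stress was applied at 50°C to pooled libraries of small protein domains, read out by high-throughput quantitative proteomics.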
row,Sequence,soluble fraction (log2)
1,HMRGLGDLEPVDSLGKIRIDDGHMVLAFGRHKGRHLSEVQAEDPRYIHWLLSPKGIEDVEAREKVKVYLEG,-0.0024
2,HMPGVLEVDTGGVAAVAYVDGVEVGRVPGELQIAAGTKTLMLKADRYLDYVQSLEIDGLGKRQLLVATLQS,-0.25
3,HMDNEIMYPIQINGKVRAELFVSTERAMDKQYVLEQAKANEKIQGYLEGNRLVKEIFVPKRIVNLVIAP,0.197
4,HMIDELNVGDIRFYLNRYGKEIQIEIIRIGDDGSVYARTMADNALFRVPEARLKNIGEKVPAEEVQRG,-0.742
5,HMSQPLYWQIRRMVIDHDDANDVLQNTFIKAWSNIGSFRGDAKFSTWLYKIAVNESITFINKKKVQN,-0.469
6,HMHFDQILAHAMDERGMNAVQLASLTGLSSGAISRYLAGDRQPTVYSIQQIAKALGVSADYLVG,-0.884
7,HMLTEERLQIITDTVNSRSSVTIAELSRILDVSPSTVKRDLNILAEAGKITKVRGGAIALGE,-0.0232
8,HMHWDIAQADAKQEVMDSSDDKEAIERIQANMFKDPKDHDQEYANKILNDMIDEIKEKGLEAMQHKFAQE,-0.379
9,HMAVENTGLSKRELEILQMMARGMSNQEIGDALFISLSTVKTHVASIFSKLQAVRRTQAVGIAKSLKII,-0.917
10,HMEMLQENIRNLRKAKGWSQEELAIKLNVVRQTVSKWEKGLSVPDSQMLIRIADELDTTVAILLG,-0.246
11,HMTNTDALINRAAKVVEEINPDKNTGRVSIDGDLWRAKSSSGELIEQNKQVIVISIESTIVTVKI,-0.343
12,HMTKAGVDAWTRGDYAAAVKEWQAQAAKGDADAIFNLGQAFKLGKGVPQDLIKAEQLFGQAAA,0.154
13,HMVNFKLIGNKIAEARKKVNISQAQLAQRLFISSQAVGKWERGESMPDIITFNRLAEILGVDLNYFSE,0.0107
14,HMKAPPLTDREKEILRWVAAGLQNKEIAHKLGISLATVRNHIHNILEKLDVHSKLEAVSLAFRQGWVS,-0.0741
15,HMGQYSTTLDKIENSLFGFTYSNEAENTRINRIENKVYGKTSTSQTSTRIAKLKKDLSVDEMG,0.0362
16,HMSRQAPIGHRIRGRRKDIGMTQNALAKAAGISPSYLNLIEHNRRSIGGGLLMRIAAILDIHPHTL,-2.23
17,HMRDPVDKDNYLGDWDKNKTYPAGYVMTFGDKNYLALQEVPAGTKPGATDPDPFWVLDTGKTLKD,-0.0888
18,HMVVSDSAEIDKIVQDVIAANPKAIEDFKSGKTNVTGWLMGQVMKLSHGKANPKQATEILNKYLSK,0.354
19,HMTNVVSKNKAKEIAMNIINDTVLQGQTAATFKEIVKANGVYVVKIEIQGQEYTSYITKDGKIVFPYGVEV,-0.451
20,HMHYELTPDAEKQLSALGLTAELVERILEEANDRRPIPGTNRTVYSLHGYSVEFSNTNHKIVSVRKG,-0.219
21,HMSSPEAAEVQRLLKDGQHVQALKIIDESLARNPKDPQMRFRRGVALSMLDRKNEALAVFQKLVED,-0.043
22,HMNKYNNIEDLKEEDFENISEKYQVPVSFVKSKLDDLINWHEKNPQKNHYKNYLSALRDWVKRDSLKIKL,0.0328
23,HMKNTIPVPHIIGLSEQEARETLERAGLQLNVIKTEPNTKYESGQVTDTNPNEGIKVPKGTIVNVVLADS,-0.00961
24,HMSKMVEMSQEKSREKVARVKIEIQKMLDRKERVTVSGLERATGFSNSFFYRNEEVNQAVKEAQLKQ,0.0985
25,HMDIPGITAVKPQAAFYMFPKIDVKKFNIVNDEKFALDLLQDKKILIVQGSGFNWKQPDHFRVV,-0.103

row,Sequence,soluble fraction (log2)
1,HMKQTMIVVMEKDAPQSQIDDMVKRIEGLGLKAHTIVGTQRTVVAAIGEKREDTRESLAGSPGVAEVVPIL,0.181
2,HMVDPRWETPDENLAEQIKSVMPVMWVYDREAKSFVERPAIDFSFSIFERTTLYIYDKDGNEIGFAR,-0.028
3,HMSEQVQLQAQVEDDLIGKRLDQVVAQLFPDYSRSRLQGWIKDGSLTVDGESRRPRDKMMGGEVVRVEATL,0.0984
4,HMLTTIRKATVNDKTRIMEIYAYARQFMAEHGNPNQWKNNNPSEETIDNDIAKQEMYVIETDGEVHAVFY,-1.44
5,HMNSISDSELKALIKNNYLKFLKRIASDEEIEYHFNQIKNKTILLDELDSIFQNSQEYKDLVEHNNKIQN,-0.0724
6,HMKIQISGSQRIDENVVVKVAGLSFPQSLLSLEPGQIESKLMQELPVQEVSVQRRLLPPGLDIQLVE,0.0631
7,HMRFKPLAEILAAVQTRYAGRVLDVELDRDQAGRNVYEVKLLAADGSRREIHIDAVTGKEVSL,-0.0325
8,HMENMSFGTKLYTWLYGKLVGSDEIGNKYYTNINDPSDLNAKRWVIFNGEIEASKIPPHWHAWLHKSIDK,-0.646
9,HMSGSLLQTRQRLQALTDLGHYKGDLAAAWGPEAIEALKRAQAALGITVDGKWGPETEDAIQVALQAQT,0.0305
10,HMLGYGEQEREAQKYLEMHTAFQADPSLQKMYLPENQYALISKVMEMTGIKNVKSYLTPPNEL,-0.0174
11,HMSEITQTLSMIGKEVTLEIPDEKDKTKTTEVKGIVTEASFKDGTGKVKVNGEYYSIAYITSIRDT,0.335
12,HMQINLKQSSDEELVKIITVQVHHYEPHTVKAAEAEIERRGIDKMRMAHLVKKVAQENTAVQEIQD,0.18
13,HMKKYFPPKSRFNPNKYLLKDWMALGLSEKQSQSILNFIQRGIYSNSALEKIYVMPEEVFTLIKDSTYYEE,-1.34
14,HMNMVSGHLQIKKGYYYVVLSYYDNRNKRHVKYVSTGLPEKGNKRKAEAALARVRSEFEPPQE,-3.55
15,HMGREVVVPNLAGIEKEVALDLLKKNRLGGMITGTRFSSDFPAGQVIQQMPEAGSRVKVGKQVKLVLSEG,0.323
16,HMEAPMPIFWRPQFRIGHDDIDADHRYLILLINTVELVLRFPDDPRNVELALTELRRYAEDHFEREER,-0.161
17,HMQVVDWSQVDKEDYLLATKRRAVSTGELKFLLLNNLTYDLTQTRFFKGMDASYYYEGYNLYQTGE,0.122
18,HMLGDAVLRQVLETIPEDPAVDYLELRRNTGMTEADLDRVLADLENLGVINKKRTVEQVLYWRT,-0.294
19,HMGMVKLNEEYLEKVKKHRKELHITQLQISKKLGWSLSRYQRFESGFYKEIEDDAPKKIKEEFGIDYSLL,-0.976
20,HMRKIFPFNPNFITDQRGYFLGMSTSEIDRLHHFRAANKWIQSAQEFQVVTKVSNAWLSEFSPYFNFP,-3.39
21,HMKSVQIPQSITVKEFSQAIEVSVADVIKKLMSMGVMVSQNKEINVDTAILVGEEFGVTVNVA,0.0996
22,HMPYNRRYLISNADGALYTVEENGLVKLEETNLTAELFETRGMQDIPDGKLLITLHDPTILYWHDSENLFP,-1.19
23,HMAAQDIILKRNAEQIEAIVKEITDTDVKYRKFTNTEGVTYSIRRSEVFSITYENGTMDLFA,0.0231
24,HMKRISDEDLLVMRRIDEVHTYHPTWGYRTITRILRRDDHLLINPKKVRRIMRDMGIYTIYPK,-0.039
25,HMKDNPNETFERIAGKITRTLRSGPVRIQQLDLLFSESAGKVVDVLRAMAENGEVLIKDDTIQLNGNN,0.0379

row,Sequence,soluble fraction (log2)
1,HMSERQTGTVKWFNNAKGFGFITMADRPDDIFVHFRAIQGDGYRSLNEGEEVEFSLVEGPKGLQAEEVTK,0.037
2,HMGESFPYVAYATDSVRLRARPSSSATILTVIRKGDAVLITGADGSYKIVEYEGRKGYVVSAFLSSQET,-0.857
3,HMRKSNADALDGKTGIVKEEIKTGGYGYVGIDGDMWRSISESGEAIPAGTKVVVISHESIILTVKPA,-0.315
4,HMAGTRRFELVEGSSSKFWEVTVADGSYTVTYGRIGTAGGSKTTESATAEADAEKLVREKLKKGYQEAGAA,0.245
5,HMTNQEFNEVFKLLLAAYPNTKDKESVATIYFLTIANELTKKEFAEAVVKILKTRKSGFIPQPAEILEVAK,-0.67
6,HMNELVEATITTQTGRLDKVLTTIFPQYSRSQIQQLLEQGNILVNETLQKGKYKVKAGDKISLTEPAIKE,0.111
7,HMEVLTEPKVQSIDTHGEKSTFVIESPNPLQPDEIAKLVGADGISVRVDRTWLKSHRDSTWTYSILTVS,-0.00748
8,HMKNTFGLTEREMEVLALIVDGLSNPEIAEKLFITRATAKAHVHSILQKLYVDDRTQAAVTAMREGL,-1.23
9,HMGGKYKGVIIGHLIDKTLRYNELQKLISHATPKMLIQQLKELEADGIIQRKLYPVVPPKTEYSLTERG,-0.754
10,HMDINIETLNYYVGKAKIPLSELRISVKNIDLFLSGEKQPTFNQLSSIAKKLNIPTGLLLLDESIEV,-2.74
11,HMKLPNSFGSIQKLSGNRRKPYRVVKTIGWDENGKQIRKTLGYYETRAKALQELALFNEKPYD,-0.804
12,HMTSVRVPVKKEIWFWAIKESQRDLNEILARFPKMDKWINQEENPTFNQLEKVAKFLRVPFGYMFLDKPPK,-0.931
13,HMTRVDALDQLAAIRFSSHIFAEDQDLRMVVVDGQRIGEGDIVRDEIRLEQITETGVIFEYQGERFPIDV,-1.42
14,HMEIFSIEPDSYLGSGEEIASYYREGVTVIVNMAKLSDAESLRMVDFMSGLKLALLGNIKRITKHVYLLTP,-0.0901
15,HMADTSLDHLGVLVRHASDVDAWAEFFENRGVTLASQPRTHRDGARSFYVDDPDGNRVQVIYHPPI,-0.498
16,HMFIEPPSLEELERRLRGRGTETDDVVDMRMRTALVELSQKMEYDYRLVNDDLDEATRQLVAYVNEIAEQ,0.0568
17,HMWPTPRTWSALMNELNLYKENHGYANIVDIPSEKIRRMADGIIGEDMAVRYVAFLQSHASS,-1.6
18,HMYIDLHEIWKSLTDEEQTVVKLLETEPAHVDTLIENSQIPASRILATLTLLEVRGIVKRLPGRMFSLAD,-1.45
19,HMQISDSSLIAKTVATVILENPEAVSDYLGGKHSVVRFMVGQIMKKTQGKANPKMATEMLETALNDL,-1.13
20,HMHPQISVEGVLPLKEAVEFVEREIISHAYSRYRATREVARHLGIDPSTVLRKAAKYGITVEPGKN,-0.658
21,HMGEPVNSPMPGTILRVEVTQGAAVKEGQLLVVLEAMKMENEILAPKDGTVAQVVVQKGSHVETGSPLIVL,-0.217
22,HMEYTTEELDSLLKLYFQTHESINRNEFEQLTSYTRTTASRRLKTLVQAGKLQNIGLYRFPVYKPTEGNF,-2.49
23,HMKEIDVPNVVGASENAARKLLESYGFQVEVQWENGERVDNAVVKSYSPNGSAKSGSTVTIVLGT,0.062
24,HMLLNPFERLTERELEIADLYAKGYGNLEIANFLSIKQNTVSTYKKRIFEKLGIDNLVELIELIKNY,0.148
25,HMIDLSELINKTGSAYTNLRPSGTAVIGDDRVDVVTEGTFVEKDRPVKVVAVEGQRVVVREVE,0.178
